One compound from article PMC10821498, “Radiosynthesis Standardization and Preclinical Assessment of the [^68Ga]Ga-DOTA-Ubiquicidin29-41: A Translational Study Targeting Differential Diagnosis of Infectious Processes” (Pharmaceuticals, 2023) can be followed below.

The format of data set [1] is physicochemical. On the procedure: The n-octanol/water partition coefficient (P) of [^68Ga]Ga-DOTA-UBI29-41 was determined using the shake-flask method described elsewhere. A 50 µL aliquot (~2 MBq) of the final product was added to a mixture of n-octanol/water (1:1). The tubes containing the mixture were shaken and centrifugated at 5000× g for 5 min in a Minispin® plus centrifuge (Eppendorf AG, Hamburg, Germany). Then, they were let to rest until complete separation of the phases occurred. After that, samples of 100 μL were taken from each phase. Radioactivity in the aliquots was quantified in an automated Wizard^2™ 3” 2480 gamma counter (PerkinElmer, Shelton, CT, USA). From there, the logarithm of P was determined from the ratio of the activity in organic phase to that in the aqueous phase.

A further data set can be described thus: in vitro. Conditions: rodent, serum. The class given is in vitro ADME, rodent. The procedure:
(§1) SPB was determined via incubation of 50 μL of [^68Ga]Ga-DOTA-UBI29-41 with 450 μL of rodent serum at 37 °C and under gentle shaking at 450× g. At 30 and 60 min, proteins were separated via ultracentrifugation at 14,000× g using Amicon® 10 kDa filters (Merck Millipore, São Paulo, Brazil). The supernatant and pellet were conditioned in microtubes and their radioactivity was quantified in an automated gamma counter. The percentage of SPB was defined by the ratio between the radioactivity in the pellet and the total radioactivity, given by the sum of the radioactivities of the pellet and the supernatant.

In the next data set the test system is rodent serum proteins. Put plainly: in vitro. The format is in vitro ADME. On the procedure:
as §1

The subject of data set [2] is methicillin-resistant Staphylococcus aureus (MRSA). The format is in vivo. Particulars: healthy and MRSA-infected BALB/c mice, 30 and 60 min after i.v. administration, n = 5 per time point. On the procedure: The MRSA bacterial strain was prepared in two steps: pre-inoculum and inoculum. In the pre-inoculum phase, 10 mL of Luria Bertani (LB) medium and 20 μL of ampicillin (500 mg/mL) were added to MRSA (50–100 IU). The mixture was maintained overnight at 37 °C and under shaking at 200× g. In the inoculum phase, 20 mL of LB medium, 500 μL of the pre-inoculum preparation content and 40 μL of ampicillin (500 mg/mL) were combined. This new product was maintained at 37 °C and under shaking at 200× g until it reached an absorbance of 0.8–1.0. This quantification was carried out with an LGI-VS-721N spectrophotometer (LGI Scientific, São Paulo, Brazil). At this point, the content was manually homogenized and 1 mL samples were separated for centrifugation at 14,000× g for 5 min. Supernatants were removed and pellets were resuspended in 100 μL of PBS containing 10^9 CFU.
Male BALB/c mice aged between 6 and 8 weeks were used in this work. […]
For the ex vivo biodistribution study, [^68Ga]Ga-DOTA-UBI29-41 was administered intravenously through the caudal vein of the mice (~5 MBq/100 μL) in control and infected animals. […] Organs were removed and weighed, and the radioactivity was quantified in a gamma counter. Percentages of injected activity per gram of organ (% IA/g) were determined, as well as the ratio of target (right tight muscle) to non-target (left tight muscle).

Where a SMILES comes first, the peptide text is derived from it. The star is where a group is joined. DOTA = O=C(O)CN1CCN(CC(=O)O)CCN(CC(=O)*)CCN(CC(=O)O)CC1

Consider `CSCC[C@H](NC(=O)[C@H](CCCNC(=N)N)NC(=O)[C@H](CCCNC(=N)N)NC(=O)[C@H](CCCCN)NC(=O)[C@H](C)NC(=O)[C@H](CCCNC(=N)N)NC(=O)CNC(=O)[C@@H](NC(=O)CN1CCN(CC(=O)O)CCN(CC(=O)O)CCN(CC(=O)O)CC1)[C@@H](C)O)C(=O)N[C@@H](CCC(N)=O)C(=O)N[C@@H](Cc1ccc(O)cc1)C(=O)N[C@@H](CC(N)=O)C(=O)N[C@@H](CCCNC(=N)N)C(=O)N[C@@H](CCCNC(=N)N)C(=O)O` [[^68Ga]Ga-DOTA-UBI29-41, [^68Ga]Ga-DOTA-Ubiquicidin29-41, metal not drawn] ({DOTA}-TGRAKRRMQYNRR-OH), for which the “Log P” value in data set [1] is “–3.63 ± 0.17”. For the same compound, in the data set “in vitro”, the fraction unbound at 30 min was 0.398 and the fraction unbound at 60 min was 0.559. The “Binding to rodent serum proteins (SPB)” value in the data set with rodent serum proteins was 60%. In addition, the “Blood clearance and excretion” value in data set [2] was “fast blood depuration with urinary excretion”.
